Experiments:
[1] = E. coli lysate screen of epPCR/DNA shuffling variants with CS0333; format: biochemical; conditions: Detection Reagent, 1 mM ATP, 500 μM substrate, 3 mins
Experimental: (§1) These experiments included lysing E. coli cells expressing each luciferase enzyme variant in Detection Reagent containing 1 mM ATP+500 μM substrate. The cell lysate was incubated at room temperature for 3 mins and luminescence was read. The raw luminescence reading was normalized to the on-plate luminescence of ATG-2889, which was used as a control in this screen.

[2] = E. coli lysate screen of epPCR/DNA shuffling variants with CS0280; format: biochemical; conditions: Detection Reagent, 1 mM ATP, 500 μM substrate, 3 mins
Experimental: as §1

Molecule | Normalized luminescence (Mutant RLU/ATG2889 RLU) with CS0333 [1] | Normalized luminescence (Mutant RLU/ATG2889 RLU) with CS0280 [2]
C4608E7: SEQ ID NO: 63; H244W+T344A+I396K+K121N+N228D+V287I (protein) MADKNILYGPEPFYPLEDGTAGEQMFDALSRYAAIPGCIALTNAHTKENVLYEEFLKLSCRLAESFKKYGLKQNDTIAVCSENSLQFFLPVIASLYLGIIVAPVNDKYIERELIHSLGIVNPRIVFCSKNTFQKVLNVKSKLKSIETIIILDLNEDLGGYQCLNNFISQNSDSNLDVKKFKPYSFNRDDQVASIMFSSGTTGLPKGVMLTHKNIVARFSIAKDPTFGDAINPTSAILTVIPFHWGFGMMTTLGYFTCGFRVVLMHTFEEKLFLQSLQDYKVESTLLIPTLMAFLAKSALVEKYDLSHLKEIASGGAPLSKEIGEMVKKRFKLNFVRQGYGLTEATSAVLITPKGDAKPGSTGKIVPLHAVKVVDPTTGKILGPNEPGELYFKGPMKMKGYYNNEEATKAIIDNDGWLRSGDIAYYDNDGHFYIVDRLKSLIKYKGYQVAPAEIEGILLQHPYIVDAGVTGIPDEAAGELPAAGVVVQTGKYLNEQIVQDYVASQVSTAKWLRGGVKFLDEIPKGSTGKIDRKVLRQMLEKHTNGHHHHHHHH | 6.86 | 5.26
C4601C8: SEQ ID NO: 61; H244W+T344A+I396K+S193P (protein) MADKNILYGPEPFYPLEDGTAGEQMFDALSRYAAIPGCIALTNAHTKENVLYEEFLKLSCRLAESFKKYGLKQNDTIAVCSENSLQFFLPVIASLYLGIIVAPVNDKYIERELIHSLGIVKPRIVFCSKNTFQKVLNVKSKLKSIETIIILDLNEDLGGYQCLNNFISQNSDSNLDVKKFKPYSFNRDDQVAPIMFSSGTTGLPKGVMLTHKNIVARFSIAKDPTFGNAINPTSAILTVIPFHWGFGMMTTLGYFTCGFRVVLMHTFEEKLFLQSLQDYKVESTLLVPTLMAFLAKSALVEKYDLSHLKEIASGGAPLSKEIGEMVKKRFKLNFVRQGYGLTEATSAVLITPKGDAKPGSTGKIVPLHAVKVVDPTTGKILGPNEPGELYFKGPMKMKGYYNNEEATKAIIDNDGWLRSGDIAYYDNDGHFYIVDRLKSLIKYKGYQVAPAEIEGILLQHPYIVDAGVTGIPDEAAGELPAAGVVVQTGKYLNEQIVQDYVASQVSTAKWLRGGVKFLDEIPKGSTGKIDRKVLRQMLEKHTNGHHHHHHHH | 3.32 | 4.53
C4580E9: SEQ ID NO: 54; H244W+T344A+I396K+N228D+V287I (protein) MADKNILYGPEPFYPLEDGTAGEQMFDALSRYAAIPGCIALTNAHTKENVLYEEFLKLSCRLAESFKKYGLKQNDTIAVCSENSLQFFLPVIASLYLGIIVAPVNDKYIERELIHSLGIVKPRIVFCSKNTFQKVLNVKSKLKSIETIIILDLNEDLGGYQCLNNFISQNSDSNLDVKKFKPYSFNRDDQVASIMFSSGTTGLPKGVMLTHKNIVARFSIAKDPTFGDAINPTSAILTVIPFHWGFGMMTTLGYFTCGFRVVLMHTFEEKLFLQSLQDYKVESTLLIPTLMAFLAKSALVEKYDLSHLKEIASGGAPLSKEIGEMVKKRFKLNFVRQGYGLTEATSAVLITPKGDAKPGSTGKIVPLHAVKVVDPTTGKILGPNEPGELYFKGPMKMKGYYNNEEATKAIIDNDGWLRSGDIAYYDNDGHFYIVDRLKSLIKYKGYQVAPAEIEGILLQHPYIVDAGVTGIPDEAAGELPAAGVVVQTGKYLNEQIVQDYVASQVSTAKWLRGGVKFLDEIPKGSTGKIDRKVLRQMLEKHTNGHHHHHHHH | 6.51 | 4.00
C4629G5: SEQ ID NO: 67; H244W+T344A+I396K+I236V (protein) MADKNILYGPEPFYPLEDGTAGEQMFDALSRYAAIPGCIALTNAHTKENVLYEEFLKLSCRLAESFKKYGLKQNDTIAVCSENSLQFFLPVIASLYLGIIVAPVNDKYIERELIHSLGIVKPRIVFCSKNTFQKVLNVKSKLKSIETIIILDLNEDLGGYQCLNNFISQNSDSNLDVKKFKPYSFNRDDQVASIMFSSGTTGLPKGVMLTHKNIVARFSIAKDPTFGNAINPTSAVLTVIPFHWGFGMMTTLGYFTCGFRVVLMHTFEEKLFLQSLQDYKVESTLLVPTLMAFLAKSALVEKYDLSHLKEIASGGAPLSKEIGEMVKKRFKLNFVRQGYGLTEATSAVLITPKGDAKPGSTGKIVPLHAVKVVDPTTGKILGPNEPGELYFKGPMKMKGYYNNEEATKAIIDNDGWLRSGDIAYYDNDGHFYIVDRLKSLIKYKGYQVAPAEIEGILLQHPYIVDAGVTGIPDEAAGELPAAGVVVQTGKYLNEQIVQDYVASQVSTAKWLRGGVKFLDEIPKGSTGKIDRKVLRQMLEKHTNGHHHHHHHH | 2.26 | 5.06
C4584G5: SEQ ID NO: 57; H244W+T344A+I396K+K107Q+L305F (protein) MADKNILYGPEPFYPLEDGTAGEQMFDALSRYAAIPGCIALTNAHTKENVLYEEFLKLSCRLAESFKKYGLKQNDTIAVCSENSLQFFLPVIASLYLGIIVAPVNDQYIERELIHSLGIVKPRIVFCSKNTFQKVLNVKSKLKSIETIIILDLNEDLGGYQCLNNFISQNSDSNLDVKKFKPYSFNRDDQVASIMFSSGTTGLPKGVMLTHKNIVARFSIAKDPTFGNAINPTSAILTVIPFHWGFGMMTTLGYFTCGFRVVLMHTFEEKLFLQSLQDYKVESTLLVPTLMAFLAKSALVEKYDFSHLKEIASGGAPLSKEIGEMVKKRFKLNFVRQGYGLTEATSAVLITPKGDAKPGSTGKIVPLHAVKVVDPTTGKILGPNEPGELYFKGPMKMKGYYNNEEATKAIIDNDGWLRSGDIAYYDNDGHFYIVDRLKSLIKYKGYQVAPAEIEGILLQHPYIVDAGVTGIPDEAAGELPAAGVVVQTGKYLNEQIVQDYVASQVSTAKWLRGGVKFLDEIPKGSTGKIDRKVLRQMLEKHTNGHHHHHHHH | 3.42 | 4.39
C4609F7: SEQ ID NO: 64; H244W+T344A+I396K+Y108F+V262A+L305F (protein) MADKNILYGPEPFYPLEDGTAGEQMFDALSRYAAIPGCIALTNAHTKENVLYEEFLKLSCRLAESFKKYGLKQNDTIAVCSENSLQFFLPVIASLYLGIIVAPVNDKFIERELIHSLGIVKPRIVFCSKNTFQKVLNVKSKLKSIETIIILDLNEDLGGYQCLNNFISQNSDSNLDVKKFKPYSFNRDDQVASIMFSSGTTGLPKGVMLTHKNIVARFSIAKDPTFGNAINPTSAILTVIPFHWGFGMMTTLGYFTCGFRVALMHTFEEKLFLQSLQDYKVESTLLVPTLMAFLAKSALVEKYDFSHLKEIASGGAPLSKEIGEMVKKRFKLNFVRQGYGLTEATSAVLITPKGDAKPGSTGKIVPLHAVKVVDPTTGKILGPNEPGELYFKGPMKMKGYYNNEEATKAIIDNDGWLRSGDIAYYDNDGHFYIVDRLKSLIKYKGYQVAPAEIEGILLQHPYIVDAGVTGIPDEAAGELPAAGVVVQTGKYLNEQIVQDYVASQVSTAKWLRGGVKFLDEIPKGSTGKIDRKVLRQMLEKHTNGHHHHHHHH | 6.04 | 3.90
